Results taken from patent US20210380703A1 (RIGEL PHARMACEUTICALS, published 2021).

Key:
Human ACVR2A = biological target: T1, Human ACVR2A (human, UniProt P27037 20-135, limits assumed); test: ELISA
T1 construct: also called activin receptor, type II A
Outline: (§1)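 Binding signal was read by ELISA after ACVR2A-specific monoclonal antibodies were tested against human ACVR2A and mouse ACVR2A, with human Fc as the negative control.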

Mouse ACVR2A = Mouse ACVR2A (mouse, UniProt P27038 20-135, limits assumed); test: ELISA
Chain of Mouse ACVR2A (P27038 20-135 limits assumed): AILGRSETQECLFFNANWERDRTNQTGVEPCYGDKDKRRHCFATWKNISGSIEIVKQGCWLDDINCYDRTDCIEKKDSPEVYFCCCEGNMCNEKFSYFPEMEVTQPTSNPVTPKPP
Outline: as §1

Goat anti-Human Kappa = biological target: T2, Goat anti-Human Kappa; test: ELISA; positive control
T2 construct: Positive control; also called biotinylated goat anti-human kappa light chain
Outline: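 Monoclonal antibodies were first applied to human or mouse ACVR2A, alongside biotinylated goat anti-human kappa light chain (positive control) and human Fc (negative control); binding was then determined by ELISA.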
Note: test concentration or dose not given here.

T1 sequence (P27037 20-135 limits assumed): as the sequence (P27038 20-135 limits assumed) above, with R20K, I73V counted along it

| Binder | optical density (Human ACVR2A) [OD] | optical density (Mouse ACVR2A) [OD] | optical density (Goat anti-Human Kappa) [OD] |
| --- | --- | --- | --- |
| 366_A07 (antibody, V domains shown, VH/VL only) VH: EVQLLESGGGLVQPGGSLRLSCAASGFTFSSYGMHWVRQAPGKGLEWVASINYNGGYTGYADSVKGRFTISRDNSKNTLYLQMNSLRAEDTAVYYCARSANWHDTALDYWGQGTLVTVSS VL: DIQMTQSPSSLSASVGDRVTITCRASQSIVSYVNWYQQKPGKAPKLVIYAATSRHSGVPSRFSGSGSGTDFTLTISSLQPEDFATYYCQQSYESPLTFGGGTKVEIK | 2.42 | 2.68 | 3.37 |
| 365_C12 (antibody, V domains shown, VH/VL only) VH: EVQLLESGGGLVQPGGSLRLSCAASGFTFSSYGMNWVRQAPGKGLEWVAGINYNSGYKSYADSVKGRFTISRDNSKNTLYLQMNSLRAEDTAVYYCARSANWHDTALDYWGQGTLVTVSS VL: DIQMTQSPSSLSASVGDRVTITCRASQSIVSYVNWYQQKPGKAPKLVIYAVTSLASGVPSRFSGSGSGTDFTLTISSLQPEDFATYYCQQSYDTPLTFGGGTKVEIK | 1.92 | 2.04 | 3.58 |
| 365_B06 (antibody, V domains shown, VH/VL only) VH: EVQLLESGGGLVQPGGSLRLSCAASGFTFDSYGMHWVRQAPGKGLEWVSNINYNGGYKSYADSVKGRFTISRDNSKNTLYLQMNSLRAEDTAVYYCARSANWHDTALDYWGQGTLVTVSS VL: DIQMTQSPSSLSASVGDRVTITCRASQSILTYVNWYQQKPGKAPKLLIYATTSLASGVPSRFSGSGSGTDFTLTISSLQPEDFATYYCQQSYDLPLTFGGGTKVEIK | 2.25 | 2.42 | 3.28 |
| 365_H03 (antibody, V domains shown, VH/VL only) VH: EVQLLESGGGLVQPGGSLRLSCAASGFTFDDYGMNWVRQAPGKGLEWVAGINYNGGYKSYADSVKGRFTISRDNSKNTLYLQMNSLRAEDTAVYYCARSANWHDTALDYWGQGTLVTVSS VL: DIQMTQSPSSLSASVGDRVTITCRASQSILSYVNWYQQKPGKAPKLVIYAATSLHSGVPSRFSGSGSGTDFTLTISSLQPEDFATYYCQQSYNNPLTFGGGTKVEIK | 2.32 | 2.65 | 3.27 |
| 366_G05 (antibody, V domains shown, VH/VL only) VH: EVQLLESGGGLVQPGGSLRLSCAASGFTFDSYGMNWVRQAPGKGLEWVSNINYNGGYTSYADSVKGRFTISRDNSKNTLYLQMNSLRAEDTAVYYCARSANWHDTALDYWGQGTLVTVSS VL: DIQMTQSPSSLSASVGDRVTITCRASQSIISYVNWYQQKPGKAPKLVIYAATSRASGVPSRFSGSGSGTDFTLTISSLQPEDFATYYCQQSYENPLTFGGGTKVEIK | 2.21 | 2.5 | 3.26 |
| 366_H09 (antibody, V domains shown, VH/VL only) VH: EVQLLESGGGLVQPGGSLRLSCAASGFTFDSYGMNWVRQAPGKGLEWVSNINYNSGYKGYADSVKGRFTISRDNSKNTLYLQMNSLRAEDTAVYYCARSANWHDTALDYWGQGTLVTVSS VL: DIQMTQSPSSLSASVGDRVTITCRASQSIVSYVNWYQQKPGKAPKLVIYATTSRASGVPSRFSGSGSGTDFTLTISSLQPEDFATYYCQQSYSSPLTFGGGTKVEIK | 2.1 | 2.44 | 3.42 |
| 365_C01 (antibody, V domains shown, VH/VL only) VH: EVQLLESGGGLVQPGGSLRLSCAASGFTFDSYGMNWVRQAPGKGLEWVSSINYNSGYKSYADSVKGRFTISRDNSKNTLYLQMNSLRAEDTAVYYCARSANWHDTHLDYWGQGTLVTVSS VL: DIQMTQSPSSLSASVGDRVTITCRASQSIVSYLNWYQQKPGKAPKLVIYAVTSRASGVPSRFSGSGSGTDFTLTISSLQPEDFATYYCQQSYESPLTFGGGTKVEIK | 2.87 | 3.02 | 3.63 |
| 365_F01 (antibody, V domains shown, VH/VL only) VH: EVQLLESGGGLVQPGGSLRLSCAASGFTFDSYSMNWVRQAPGKGLEWVSGINYNSGYKGYADSVKGRFTISRDNSKNTLYLQMNSLRAEDTAVYYCARSANWHDTHLDYWGQGTLVTVSS VL: DIQMTQSPSSLSASVGDRVTITCRASQSIVSYLNWYQQKPGKAPKLVIYAATSLASGVPSRFSGSGSGTDFTLTISSLQPEDFATYYCQQSYELPLTFGGGTKVEIK | 2.51 | 2.47 | 3.51 |
| 366_E10 (antibody, V domains shown, VH/VL only) VH: EVQLLESGGGLVQPGGSLRLSCAASGFTFDSYGMNWVRQAPGKGLEWVSGINYNGGYKGYADSVKGRFTISRDNSKNTLYLQMNSLRAEDTAVYYCARSANWHDTHLDYWGQGTLVTVSS VL: DIQMTQSPSSLSASVGDRVTITCRASQSILSYVNWYQQKPGKAPKLVIYAATSRHSGVPSRFSGSGSGTDFTLTISSLQPEDFATYYCQQSYSLPLTFGGGTKVEIK | 2.35 | 2.39 | 3.45 |
| 365_B01 (antibody, V domains shown, VH/VL only) VH: EVQLLESGGGLVQPGGSLRLSCAASGFTFDSYGMHWVRQAPGKGLEWVASINYNSGYTSYADSVKGRFTISRDNSKNTLYLQMNSLRAEDTAVYYCARSANWHDTALDYWGQGTLVTVSS VL: DIQMTQSPSSLSASVGDRVTITCRASQSISSYVNWYQQKPGKAPKLVIYAATSRASGVPSRFSGSGSGTDFTLTISSLQPEDFATYYCQQSYESPLTFGGGTKVEIK | 2.39 | 2.65 | 3.49 |
| 366_H07 (antibody, V domains shown, VH/VL only) VH: EVQLLESGGGLVQPGGSLRLSCAASGFTFSSYGMHWVRQAPGKGLEWVSGINYNGGYTSYADSVKGRFTISRDNSKNTLYLQMNSLRAEDTAVYYCARSANWHDTALDYWGQGTLVTVSS VL: DIQMTQSPSSLSASVGDRVTITCRASQSIISYVNWYQQKPGKAPKLVIYAVTSRASGVPSRFSGSGSGTDFTLTISSLQPEDFATYYCQQSYENPLTFGGGTKVEIK | 2.53 | 2.67 | 3.6 |

The remaining lines, values ahead:

| optical density (Human ACVR2A) [OD] | optical density (Mouse ACVR2A) [OD] | optical density (Goat anti-Human Kappa) [OD] | Binder |
| --- | --- | --- | --- |
| 3.7 | 3.72 | 3.19 | 376_A07 (antibody, V domains shown, VH/VL only) VH: EVQLLESGGGLVQPGGSLRLSCAASGFTFSSYSMNWVRQAPGKGLEWVSGINYNGGYKSYADSVKGRFTISRDNSKNTLYLQMNSLRAEDTAVYYCARGATWHDTHLDYWGQGTLVTVSS VL: DIQMTQSPSSLSASVGDRVTITCRASQSILTYLNWYQQKPGKAPKLLIYAATSRASGVPSRFSGSGSGTDFTLTISSLQPEDFATYYCQQSYDSPLTFGGGTKVEIK |
| 3.42 | 3.58 | 3.49 | 376_G06 (antibody, V domains shown, VH/VL only) VH: EVQLLESGGGLVQPGGSLRLSCAASGFTFSSYGMNWVRQAPGKGLEWVAGINYNGGYTGYADSVKGRFTISRDNSKNTLYLQMNSLRAEDTAVYYCARGANWHDTHLDYWGQGTLVTVSS VL: DIQMTQSPSSLSASVGDRVTITCRASQSIVSYVNWYQQKPGKAPKLVIYAATSRASGVPSRFSGSGSGTDFTLTISSLQPEDFATYYCQQSYNSPLTFGGGTKVEIK |
| 3.29 | 3.31 | 3.43 | 376_H11 (antibody, V domains shown, VH/VL only) VH: EVQLLESGGGLVQPGGSLRLSCAASGFTFDSYSMNWVRQAPGKGLEWVSNINYNGGYTGYADSVKGRFTISRDNSKNTLYLQMNSLRAEDTAVYYCARGANWHDTALDYWGQGTLVTVSS VL: DIQMTQSPSSLSASVGDRVTITCRASQSISRYLNWYQQKPGKAPKLLIYAVTSLASGVPSRFSGSGSGTDFTLTISSLQPEDFATYYCQQSYESPLTFGGGTKVEIK |
| 3.11 | 3.31 | 3.28 | 376_H01 (antibody, V domains shown, VH/VL only) VH: EVQLLESGGGLVQPGGSLRLSCAASGFTFSDYSMNWVRQAPGKGLEWVAGINYNGGYKGYADSVKGRFTISRDNSKNTLYLQMNSLRAEDTAVYYCARGANWHDTALDYWGQGTLVTVSS VL: DIQMTQSPSSLSASVGDRVTITCRASQSILTYLNWYQQKPGKAPKLLIYAATSRASGVPSRFSGSGSGTDFTLTISSLQPEDFATYYCQQSYSTPLTFGGGTKVEIK |
| 3.75 | 3.77 | 3.49 | 376_G05 (antibody, V domains shown, VH/VL only) VH: EVQLLESGGGLVQPGGSLRLSCAASGFTFSSYSMNWVRQAPGKGLEWVAGINYNGGYTSYADSVKGRFTISRDNSKNTLYLQMNSLRAEDTAVYYCARGANWHDTALDYWGQGTLVTVSS VL: DIQMTQSPSSLSASVGDRVTITCRASQSIISYVNWYQQKPGKAPKLVIYAATSRASGVPSRFSGSGSGTDFTLTISSLQPEDFATYYCQQSYESPLTFGGGTKVEIK |
| 3.54 | 3.52 | 3.54 | 376_G10 (antibody, V domains shown, VH/VL only) VH: EVQLLESGGGLVQPGGSLRLSCAASGFTFDSYGMNWVRQAPGKGLEWVAGINYNGGYTSYADSVKGRFTISRDNSKNTLYLQMNSLRAEDTAVYYCARGANWHDTALDYWGQGTLVTVSS VL: DIQMTQSPSSLSASVGDRVTITCRASQSILSYVNWYQQKPGKAPKLLIYAATSRASGVPSRFSGSGSGTDFTLTISSLQPEDFATYYCQQSYESPLTFGGGTKVEIK |
| 3.52 | 3.65 | 3.47 | 376_F06 (antibody, V domains shown, VH/VL only) VH: EVQLLESGGGLVQPGGSLRLSCAASGFTFSSYGMNWVRQAPGKGLEWVSGINYNGGYTGYADSVKGRFTISRDNSKNTLYLQMNSLRAEDTAVYYCARGANWHDTHLDYWGQGTLVTVSS VL: DIQMTQSPSSLSASVGDRVTITCRASQSILTYVNWYQQKPGKAPKLVIYAATSRASGVPSRFSGSGSGTDFTLTISSLQPEDFATYYCQQSYETPLTFGGGTKVEIK |
| 3.31 | 3.34 | 3.51 | 376_H04 (antibody, V domains shown, VH/VL only) VH: EVQLLESGGGLVQPGGSLRLSCAASGFTFSSYSMNWVRQAPGKGLEWVAGINYNGGYKGYADSVKGRFTISRDNSKNTLYLQMNSLRAEDTAVYYCARGANWHDTALDYWGQGTLVTVSS VL: DIQMTQSPSSLSASVGDRVTITCRASQSILTYVNWYQQKPGKAPKLVIYAATSRASGVPSRFSGSGSGTDFTLTISSLQPEDFATYYCQQSYDLPLTFGGGTKVEIK |
